Source: paper PMC2141627

Molecular target: laminin 5 (α3β3γ2) purified from SCC25 cell culture medium (human (endogenous in SCC25)) (UniProt Q16787)
Assay: rotary shadowing electron microscopy

## NC-1 domain of type VII collagen purified from human amnion (from UniProt Q02388 17-2944) (domain or fragment)
  stoichiometry N: 1
